Results as given in patent US20260152573A1 (ARGENX, published 2026).

Legend:
human serum albumin [1] = biological target: T1, human serum albumin (human, UniProt P02768 25-609); assay: SPR Biacore, HSA coated, steady state, pH 5.5
T1 construct: Immobilised on SPR chips; also added in solution in the FcRn occupancy assays; also called HSA; humanSA

human serum albumin [2] = biological target: T1, human serum albumin; assay: SPR Biacore, HSA coated, steady state, pH 7.4
human serum albumin [3] = biological target: T1, human serum albumin; assay: SPR Biacore, HSA coated, kinetic fit, pH 5.5
human serum albumin [4] = biological target: T1, human serum albumin; assay: SPR Biacore, HSA coated, kinetic fit, pH 7.4
human serum albumin [5] = biological target: T1, human serum albumin; assay: SPR Biacore 8K+ SCK, albumin on chip, pH 7.4

Binder	Kd (human serum albumin [1])	Kd (human serum albumin [2])	Kd (human serum albumin [3])	Kd (human serum albumin [4])	fold decrease in affinity compared to the parental Alb23 VHH fragment (human serum albumin [5])
OA-Fc-ABDEG-Alb23-G53A (Fc fusion) DKTHTCPPCPAPELLGGPSVFLFPPKPKDTLYITREPEVTCVVVDVSHEDPEVKFNWYVDGVEVHNAKTKPREEQYNSTYRVVSVLTVLHQDWLNGKEYKCKVSNKALPAPIEKTISKAKGQPREPQVYTLPPSRDELTKNQVSLWCLVKGFYPSDIAVEWESNGQPENNYKTTPPVLDSDGSFFLYSKLTVDKSRWQQGNVFSCSVMHEALKFHYTQKSLSLSPGGGGGSGGGGSGGGGSGGGGSEVQLLESGGGLVQPGGSLRLSCAASGFTFRSFGMSWVRQAPGKGPEWVSSISASGSDTLYADSVKGRFTISRDNSKNTLYLQMNSLRPEDTAVYYCTIGGSLSRSSQGTLVTVSS Fc: DKTHTCPPCPAPELLGGPSVFLFPPKPKDTLYITREPEVTCVVVDVSHEDPEVKFNWYVDGVEVHNAKTKPREEQYNSTYRVVSVLTVLHQDWLNGKEYKCKVSNKALPAPIEKTISKAKGQPREPQVYTLPPSRDELTKNQVSLSCAVKGFYPSDIAVEWESNGQPENNYKTTPPVLDSDGSFFLVSKLTVDKSRWQQGNVFSCSVMHEALKFHYTQKSLSLSPG	36.7 nM	158 nM	20.6 nM	78.8 nM	–
OA-Fc-ABDEG-Alb23-S52A (Fc fusion) DKTHTCPPCPAPELLGGPSVFLFPPKPKDTLYITREPEVTCVVVDVSHEDPEVKFNWYVDGVEVHNAKTKPREEQYNSTYRVVSVLTVLHQDWLNGKEYKCKVSNKALPAPIEKTISKAKGQPREPQVYTLPPSRDELTKNQVSLWCLVKGFYPSDIAVEWESNGQPENNYKTTPPVLDSDGSFFLYSKLTVDKSRWQQGNVFSCSVMHEALKFHYTQKSLSLSPGGGGGSGGGGSGGGGSGGGGSEVQLLESGGGLVQPGGSLRLSCAASGFTFRSFGMSWVRQAPGKGPEWVSSIAGSGSDTLYADSVKGRFTISRDNSKNTLYLQMNSLRPEDTAVYYCTIGGSLSRSSQGTLVTVSS Fc: DKTHTCPPCPAPELLGGPSVFLFPPKPKDTLYITREPEVTCVVVDVSHEDPEVKFNWYVDGVEVHNAKTKPREEQYNSTYRVVSVLTVLHQDWLNGKEYKCKVSNKALPAPIEKTISKAKGQPREPQVYTLPPSRDELTKNQVSLSCAVKGFYPSDIAVEWESNGQPENNYKTTPPVLDSDGSFFLVSKLTVDKSRWQQGNVFSCSVMHEALKFHYTQKSLSLSPG	49.5 nM	27.3 nM	34.2 nM	167 nM	–
OA-Fc-ABDEG-Alb23-S52A/G53A (Fc fusion) DKTHTCPPCPAPELLGGPSVFLFPPKPKDTLYITREPEVTCVVVDVSHEDPEVKFNWYVDGVEVHNAKTKPREEQYNSTYRVVSVLTVLHQDWLNGKEYKCKVSNKALPAPIEKTISKAKGQPREPQVYTLPPSRDELTKNQVSLWCLVKGFYPSDIAVEWESNGQPENNYKTTPPVLDSDGSFFLYSKLTVDKSRWQQGNVFSCSVMHEALKFHYTQKSLSLSPGGGGGSGGGGSGGGGSGGGGSEVQLLESGGGLVQPGGSLRLSCAASGFTFRSFGMSWVRQAPGKGPEWVSSIAASGSDTLYADSVKGRFTISRDNSKNTLYLQMNSLRPEDTAVYYCTIGGSLSRSSQGTLVTVSS Fc: DKTHTCPPCPAPELLGGPSVFLFPPKPKDTLYITREPEVTCVVVDVSHEDPEVKFNWYVDGVEVHNAKTKPREEQYNSTYRVVSVLTVLHQDWLNGKEYKCKVSNKALPAPIEKTISKAKGQPREPQVYTLPPSRDELTKNQVSLSCAVKGFYPSDIAVEWESNGQPENNYKTTPPVLDSDGSFFLVSKLTVDKSRWQQGNVFSCSVMHEALKFHYTQKSLSLSPG	65.9 nM	298 nM	47.7 nM	204 nM	–
Alb23 F32A (VHH, VHH alone) VHH: EVQLLESGGGLVQPGGSLRLSCAASGFTFRSAGMSWVRQAPGKGPEWVSSISGSGSDTLYADSVKGRFTISRDNSKNTLYLQMNSLRPEDTAVYYCTIGGSLSRSSQGTLVTVSS	–	–	–	–	≥ 10 fold

More lines, now with the values ahead:

Kd (human serum albumin [1])	Kd (human serum albumin [2])	Kd (human serum albumin [3])	Kd (human serum albumin [4])	fold decrease in affinity compared to the parental Alb23 VHH fragment (human serum albumin [5])	Binder
67.5 nM	353 nM	54.3 nM	255 nM	–	OA-Fc-ABDEG-Alb23-S101A (Fc fusion) DKTHTCPPCPAPELLGGPSVFLFPPKPKDTLYITREPEVTCVVVDVSHEDPEVKFNWYVDGVEVHNAKTKPREEQYNSTYRVVSVLTVLHQDWLNGKEYKCKVSNKALPAPIEKTISKAKGQPREPQVYTLPPSRDELTKNQVSLWCLVKGFYPSDIAVEWESNGQPENNYKTTPPVLDSDGSFFLYSKLTVDKSRWQQGNVFSCSVMHEALKFHYTQKSLSLSPGGGGGSGGGGSGGGGSGGGGSEVQLLESGGGLVQPGGSLRLSCAASGFTFRSFGMSWVRQAPGKGPEWVSSISGSGSDTLYADSVKGRFTISRDNSKNTLYLQMNSLRPEDTAVYYCTIGGALSRSSQGTLVTVSS Fc: DKTHTCPPCPAPELLGGPSVFLFPPKPKDTLYITREPEVTCVVVDVSHEDPEVKFNWYVDGVEVHNAKTKPREEQYNSTYRVVSVLTVLHQDWLNGKEYKCKVSNKALPAPIEKTISKAKGQPREPQVYTLPPSRDELTKNQVSLSCAVKGFYPSDIAVEWESNGQPENNYKTTPPVLDSDGSFFLVSKLTVDKSRWQQGNVFSCSVMHEALKFHYTQKSLSLSPG
70.8 nM	315 nM	54.9 nM	206 nM	–	OA-Fc-ABDEG-Alb23-S101T (Fc fusion) DKTHTCPPCPAPELLGGPSVFLFPPKPKDTLYITREPEVTCVVVDVSHEDPEVKFNWYVDGVEVHNAKTKPREEQYNSTYRVVSVLTVLHQDWLNGKEYKCKVSNKALPAPIEKTISKAKGQPREPQVYTLPPSRDELTKNQVSLWCLVKGFYPSDIAVEWESNGQPENNYKTTPPVLDSDGSFFLYSKLTVDKSRWQQGNVFSCSVMHEALKFHYTQKSLSLSPGGGGGSGGGGSGGGGSGGGGSEVQLLESGGGLVQPGGSLRLSCAASGFTFRSFGMSWVRQAPGKGPEWVSSISGSGSDTLYADSVKGRFTISRDNSKNTLYLQMNSLRPEDTAVYYCTIGGTLSRSSQGTLVTVSS Fc: DKTHTCPPCPAPELLGGPSVFLFPPKPKDTLYITREPEVTCVVVDVSHEDPEVKFNWYVDGVEVHNAKTKPREEQYNSTYRVVSVLTVLHQDWLNGKEYKCKVSNKALPAPIEKTISKAKGQPREPQVYTLPPSRDELTKNQVSLSCAVKGFYPSDIAVEWESNGQPENNYKTTPPVLDSDGSFFLVSKLTVDKSRWQQGNVFSCSVMHEALKFHYTQKSLSLSPG
124 nM	579 nM	95.6 nM	501 nM	–	OA-Fc-ABDEG-Alb23-S52A/S101A (Fc fusion) DKTHTCPPCPAPELLGGPSVFLFPPKPKDTLYITREPEVTCVVVDVSHEDPEVKFNWYVDGVEVHNAKTKPREEQYNSTYRVVSVLTVLHQDWLNGKEYKCKVSNKALPAPIEKTISKAKGQPREPQVYTLPPSRDELTKNQVSLWCLVKGFYPSDIAVEWESNGQPENNYKTTPPVLDSDGSFFLYSKLTVDKSRWQQGNVFSCSVMHEALKFHYTQKSLSLSPGGGGGSGGGGSGGGGSGGGGSEVQLLESGGGLVQPGGSLRLSCAASGFTFRSFGMSWVRQAPGKGPEWVSSIAGSGSDTLYADSVKGRFTISRDNSKNTLYLQMNSLRPEDTAVYYCTIGGALSRSSQGTLVTVSS Fc: DKTHTCPPCPAPELLGGPSVFLFPPKPKDTLYITREPEVTCVVVDVSHEDPEVKFNWYVDGVEVHNAKTKPREEQYNSTYRVVSVLTVLHQDWLNGKEYKCKVSNKALPAPIEKTISKAKGQPREPQVYTLPPSRDELTKNQVSLSCAVKGFYPSDIAVEWESNGQPENNYKTTPPVLDSDGSFFLVSKLTVDKSRWQQGNVFSCSVMHEALKFHYTQKSLSLSPG
